The values that follow are results of earlier work, collected in patent EP4725499A1, “M[…] PROTEIN FOR IMM[…] ALZHEIMER'S DISEASE” (Centro De Neurociencias De Cuba, priority 2023, dated 2024).

The target of the data set is Aβ (Homo sapiens, UniProt P05067).
Aβ, sequence (P05067 672-713 limits assumed): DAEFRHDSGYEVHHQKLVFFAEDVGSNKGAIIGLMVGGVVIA

As for “AN1792: AN1792 vaccine, consisting of a synthetic Aβ1-42 peptide”, the “time after which responders maintained an anti-AN-1792 antibody response” value (follow-up of responders, 1-3 injections, low titers) is listed as “approximately 4.6 years”. In addition, the “patients who developed an anti-Aβ antibody response” value (patients with mild to moderate AD, phase II) is recorded as 19.7%. The “progression of cognitive decline” value (responders compared with placebo-treated patients, follow-up) is “significantly reduced”.
